Columns and labels:
RIG-I (hRIG-I) [1] = target: T1, RIG-I (hRIG-I) (human, UniProt O95786 1-925); assay: SEC-MALLS; 2 mM ATP analogue; complex 110 kDa, 1:1; settings: protein: recombinant; double-stranded side products or secondary structure possible
T1 sequence: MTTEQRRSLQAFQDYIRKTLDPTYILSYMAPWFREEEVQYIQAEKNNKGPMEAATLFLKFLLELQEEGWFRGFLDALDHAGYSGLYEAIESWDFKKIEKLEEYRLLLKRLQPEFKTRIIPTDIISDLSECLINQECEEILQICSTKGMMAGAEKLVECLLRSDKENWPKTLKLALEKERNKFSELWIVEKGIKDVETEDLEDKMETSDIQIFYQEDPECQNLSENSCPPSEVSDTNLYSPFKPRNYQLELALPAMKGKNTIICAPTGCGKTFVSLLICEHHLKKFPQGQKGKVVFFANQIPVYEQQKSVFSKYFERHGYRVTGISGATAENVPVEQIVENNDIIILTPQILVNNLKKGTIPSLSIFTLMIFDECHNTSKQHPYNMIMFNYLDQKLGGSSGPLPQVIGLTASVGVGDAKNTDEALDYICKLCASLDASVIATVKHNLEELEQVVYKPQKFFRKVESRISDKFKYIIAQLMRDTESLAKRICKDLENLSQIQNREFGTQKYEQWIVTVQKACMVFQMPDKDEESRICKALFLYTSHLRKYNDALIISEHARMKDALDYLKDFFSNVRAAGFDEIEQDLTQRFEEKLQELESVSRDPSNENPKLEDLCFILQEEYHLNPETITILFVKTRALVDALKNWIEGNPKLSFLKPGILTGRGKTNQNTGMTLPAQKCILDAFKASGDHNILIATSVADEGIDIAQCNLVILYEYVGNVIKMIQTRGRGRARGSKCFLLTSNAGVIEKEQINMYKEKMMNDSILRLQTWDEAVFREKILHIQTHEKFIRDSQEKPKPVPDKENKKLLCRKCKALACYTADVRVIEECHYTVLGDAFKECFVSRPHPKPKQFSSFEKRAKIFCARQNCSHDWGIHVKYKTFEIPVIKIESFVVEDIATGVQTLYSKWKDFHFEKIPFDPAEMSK

RIG-I (hRIG-I) [2] = target: T1, RIG-I (hRIG-I); assay: SEC-MALLS; 2 mM ATP analogue; complex 113 kDa, 1:1; SEC-MALLS: 37 mM RIG-I, 40 mM RNA (units as printed), 2 mM ATP analogue, S200 column; buffer, salt, pH and temperature not in the material; settings: protein: recombinant; double-stranded side products or secondary structure possible

B1: Rabies leader 5'ppp-RNA (RabV-L) (ssRNA)
RNA: GGACGCUUAACAACAAAACCAGAGAAGAAAAAGACAGCGUCAAUUGCAAACGAAAAAUGUGC
modifications: 5'-triphosphate
B1: binds (RIG-I (hRIG-I) [1]).

B2: Measles leader 5'ppp-RNA (MeV-L) (ssRNA)
RNA: GGACCAAACAAAGUUGGGUAAGGAUAGAUCAAUCAAUGAUCAUAUUCUAGUACACUUGAAUUC
modifications: 5'-triphosphate
B2: binds (RIG-I (hRIG-I) [2]).
